In IntAct's records for PubMed 31515488:

B1: Tetratricopeptide repeat protein 14 (Homo sapiens), Q96N46 (parent)
chain: MDRDLLRQSLNCHGSSLLSLLRSEQQDNPHFRSLLGSAAEPARGPPPQHPLQGRKEKRVDNIEIQKFISKKADLLFALSWKSDAPATSEINEDSEDHYAIMPPLEQFMEIPSMDRRELFFRDIERGDIVIGRISSIREFGFFMVLICLGSGIMRDIAHLEITALCPLRDVPSHSNHGDPLSYYQTGDIIRAGIKDIDRYHEKLAVSLYSSSLPPHLSGIKLGVISSEELPLYYRRSVELNSNSLESYENVMQSSLGFVNPGVVEFLLEKLGIDESNPPSLMRGLQSKNFSEDDFASALRKKQSASWALKCVKIGVDYFKVGRHVDAMNEYNKALEIDKQNVEALVARGALYATKGSLNKAIEDFELALENCPTHRNARKYLCQTLVERGGQLEEEEKFLNAESYYKKALALDETFKDAEDALQKLHKYMQKSLELREKQAEKEEKQKTKKIETSAEKLRKLLKEEKRLKKKRRKSTSSSSVSSADESVSSSSSSSSSGHKRHKKHKRNRSESSRSSRRHSSRASSNQIDQNRKDECYPVPANTSASFLNHKQEVEKLLGKQDRLQYEKTQIKEKDRCPLSSSSLEIPDDFGGRSEDPRDFYNSYKTQAGSSKTEKPYKSERHFSSRRNSSDSFCRNSEDKIYGYRRFEKDIEGRKEHYRRWEPGSVRHSTSPASSEYSWKSVEKYKKYAHSGSRDFSRHEQRYRLNTNQGEYEREDNYGEDIKTEVPEEDALSSKEHSESSVKKNLPQNLLNIFNQIAEFEKEKGNKSKN
B2: Tuftelin-interacting protein 11 (Homo sapiens), Q9UBB9 (parent)
chain: MSLSHLYRDGEGRIDDDDDERENFEITDWDLQNEFNPNRQRHWQTKEEATYGVWAERDSDDERPSFGGKRARDYSAPVNFISAGLKKGAAEEAELEDSDDEEKPVKQDDFPKDFGPRKLKTGGNFKPSQKGFAGGTKSFMDFGSWERHTKGIGQKLLQKMGYVPGRGLGKNAQGIINPIEAKQRKGKGAVGAYGSERTTQSMQDFPVVDSEEEAEEEFQKELSQWRKDPSGSKKKPKYSYKTVEELKAKGRISKKLTAPQKELSQVKVIDMTGREQKVYYSYSQISHKHNVPDDGLPLQSQQLPQSGKEAKAPGFALPELEHNLQLLIDLTEQEIIQNDRQLQYERDMVVNLFHELEKMTEVLDHEERVISNLSKVLEMVEECERRMQPDCSNPLTLDECARIFETLQDKYYEEYRMSDRVDLAVAIVYPLMKEYFKEWDPLKDCTYGTEIISKWKSLLENDQLLSHGGQDLSADAFHRLIWEVWMPFVRNIVTQWQPRNCDPMVDFLDSWVHIIPVWILDNILDQLIFPKLQKEVENWNPLTDTVPIHSWIHPWLPLMQARLEPLYSPIRSKLSSALQKWHPSDSSAKLILQPWKDVFTPGSWEAFMVKNIVPKLGMCLGELVINPHQQHMDAFYWVIDWEGMISVSSLVGLLEKHFFPKWLQVLCSWLSNSPNYEEITKWYLGWKSMFSDQVLAHPSVKDKFNEALDIMNRAVSSNVGAYMQPGARENIAYLTHTERRKDFQYEAMQERREAENMAQRGIGVAASSVPMNFKDLIETKAEEHNIVFMPVIGKRHEGKQLYTFGRIVIYIDRGVVFVQGEKTWVPTSLQSLIDMAK
partner: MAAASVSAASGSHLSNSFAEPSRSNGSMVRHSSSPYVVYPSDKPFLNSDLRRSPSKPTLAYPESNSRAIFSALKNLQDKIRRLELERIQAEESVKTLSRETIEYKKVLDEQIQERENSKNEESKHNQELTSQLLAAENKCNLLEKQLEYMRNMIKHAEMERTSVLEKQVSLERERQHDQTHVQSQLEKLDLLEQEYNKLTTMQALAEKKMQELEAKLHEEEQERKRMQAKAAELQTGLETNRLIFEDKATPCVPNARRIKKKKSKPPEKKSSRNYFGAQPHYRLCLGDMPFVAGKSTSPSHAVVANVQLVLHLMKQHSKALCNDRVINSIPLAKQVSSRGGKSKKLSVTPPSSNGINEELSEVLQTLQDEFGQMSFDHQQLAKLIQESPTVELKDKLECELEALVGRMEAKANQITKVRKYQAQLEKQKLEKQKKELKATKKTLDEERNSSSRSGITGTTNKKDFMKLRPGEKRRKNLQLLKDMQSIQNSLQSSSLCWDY
B3: Four and a half LIM domains protein 2 (Homo sapiens), Q14192 (parent)
chain: MTERFDCHHCNESLFGKKYILREESPYCVVCFETLFANTCEECGKPIGCDCKDLSYKDRHWHEACFHCSQCRNSLVDKPFAAKEDQLLCTDCYSNEYSSKCQECKKTIMPGTRKMEYKGSSWHETCFICHRCQQPIGTKSFIPKDNQNFCVPCYEKQHAMQCVQCKKPITTGGVTYREQPWHKECFVCTACRKQLSGQRFTARDDFAYCLNCFCDLYAKKCAGCTNPISGLGGTKYISFEERQWHNDCFNCKKCSLSLVGRGFLTERDDILCPDCGKDI
partner: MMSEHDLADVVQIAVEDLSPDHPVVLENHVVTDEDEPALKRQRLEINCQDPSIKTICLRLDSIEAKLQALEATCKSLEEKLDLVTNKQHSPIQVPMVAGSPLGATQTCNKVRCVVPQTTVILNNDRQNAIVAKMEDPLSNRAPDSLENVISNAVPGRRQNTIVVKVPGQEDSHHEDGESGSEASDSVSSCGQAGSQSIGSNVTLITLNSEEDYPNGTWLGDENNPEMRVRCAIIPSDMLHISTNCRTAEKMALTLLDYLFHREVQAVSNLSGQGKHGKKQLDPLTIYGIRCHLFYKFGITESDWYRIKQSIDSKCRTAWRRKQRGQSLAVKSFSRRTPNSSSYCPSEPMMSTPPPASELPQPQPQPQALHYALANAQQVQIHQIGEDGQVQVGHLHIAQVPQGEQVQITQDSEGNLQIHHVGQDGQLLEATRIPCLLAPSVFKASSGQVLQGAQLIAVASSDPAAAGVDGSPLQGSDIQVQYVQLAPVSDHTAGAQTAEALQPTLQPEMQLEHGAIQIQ
B4: GTP-binding protein GEM (Homo sapiens), P55040 (parent)
chain: MTLNNVTMRQGTVGMQPQQQRWSIPADGRHLMVQKEPHQYSHRNRHSATPEDHCRRSWSSDSTDSVISSESGNTYYRVVLIGEQGVGKSTLANIFAGVHDSMDSDCEVLGEDTYERTLMVDGESATIILLDMWENKGENEWLHDHCMQVGDAYLIVYSITDRASFEKASELRIQLRRARQTEDIPIILVGNKSDLVRCREVSVSEGRACAVVFDCKFIETSAAVQHNVKELFEGIVRQVRLRRDSKEKNERRLAYQKRKESMPRKARRFWGKIVAKNNKNMAFKLKSKSCHDLSVL
B5: Translocator protein (Homo sapiens), P30536 (parent)
chain: MAPPWVPAMGFTLAPSLGCFVGSRFVHGEGLRWYAGLQKPSWHPPHWVLGPVWGTLYSAMGYGSYLVWKELGGFTEKAVVPLGLYTGQLALNWAWPPIFFGARQMGWALVDLLLVSGAAAATTVAWYQVSPLAARLLYPYLAWLAFTTTLNYCVWRDNHGWRGGRRLPE
partner: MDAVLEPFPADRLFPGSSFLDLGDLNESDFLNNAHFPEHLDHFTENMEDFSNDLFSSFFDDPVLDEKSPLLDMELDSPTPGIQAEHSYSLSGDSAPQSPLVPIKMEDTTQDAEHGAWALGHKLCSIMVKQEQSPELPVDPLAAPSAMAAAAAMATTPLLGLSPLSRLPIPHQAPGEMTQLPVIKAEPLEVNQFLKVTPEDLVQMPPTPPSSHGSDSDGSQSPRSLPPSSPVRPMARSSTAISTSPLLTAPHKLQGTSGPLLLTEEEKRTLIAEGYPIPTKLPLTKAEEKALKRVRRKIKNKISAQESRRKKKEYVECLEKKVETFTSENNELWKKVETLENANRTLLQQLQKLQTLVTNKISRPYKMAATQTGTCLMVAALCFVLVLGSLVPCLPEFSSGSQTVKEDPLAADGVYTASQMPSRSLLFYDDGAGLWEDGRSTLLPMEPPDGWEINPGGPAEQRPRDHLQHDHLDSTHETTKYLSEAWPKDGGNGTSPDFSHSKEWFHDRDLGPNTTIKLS
B6: Dynein light chain 2, cytoplasmic (Homo sapiens), Q96FJ2 (parent)
chain: MSDRKAVIKNADMSEDMQQDAVDCATQAMEKYNIEKDIAAYIKKEFDKKYNPTWHCIVGRNFGSYVTHETKHFIYFYLGQVAILLFKSG
partner: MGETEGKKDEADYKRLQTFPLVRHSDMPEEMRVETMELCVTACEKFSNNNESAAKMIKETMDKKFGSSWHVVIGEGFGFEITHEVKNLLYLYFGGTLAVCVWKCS
B7: Notch homolog 2 N-terminal-like protein A (Homo sapiens), Q7Z3S9 (parent)
chain: MCVTYHNGTGYCKCPEGFLGEYCQHRDPCEKNRCQNGGTCVAQAMLGKATCRCASGFTGEDCQYSTSHPCFVSRPCLNGGTCHMLSRDTYECTCQVGFTGKECQWTDACLSHPCANGSTCTTVANQFSCKCLTGFTGQKCETDVNECDIPGHCQHGGTCLNLPGSYQCQCLQGFTGQYCDSLYVPCAPSPCVNGGTCRQTGDFTFECNCLPETVRRGTELWERDREVWNGKEHDEN
partner: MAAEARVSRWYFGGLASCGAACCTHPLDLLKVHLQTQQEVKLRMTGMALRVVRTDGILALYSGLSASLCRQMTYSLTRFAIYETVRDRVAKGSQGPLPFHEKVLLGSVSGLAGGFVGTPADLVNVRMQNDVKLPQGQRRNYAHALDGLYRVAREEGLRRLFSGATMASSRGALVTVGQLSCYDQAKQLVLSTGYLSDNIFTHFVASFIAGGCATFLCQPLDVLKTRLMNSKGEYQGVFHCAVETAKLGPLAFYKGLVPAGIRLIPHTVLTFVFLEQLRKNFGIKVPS

Variants of: B1
Conditions: with cep70_human CEP70, Q8NHQ1
cep70_human CEP70, Q8NHQ1, sequence (Q8NHQ1 whole entry): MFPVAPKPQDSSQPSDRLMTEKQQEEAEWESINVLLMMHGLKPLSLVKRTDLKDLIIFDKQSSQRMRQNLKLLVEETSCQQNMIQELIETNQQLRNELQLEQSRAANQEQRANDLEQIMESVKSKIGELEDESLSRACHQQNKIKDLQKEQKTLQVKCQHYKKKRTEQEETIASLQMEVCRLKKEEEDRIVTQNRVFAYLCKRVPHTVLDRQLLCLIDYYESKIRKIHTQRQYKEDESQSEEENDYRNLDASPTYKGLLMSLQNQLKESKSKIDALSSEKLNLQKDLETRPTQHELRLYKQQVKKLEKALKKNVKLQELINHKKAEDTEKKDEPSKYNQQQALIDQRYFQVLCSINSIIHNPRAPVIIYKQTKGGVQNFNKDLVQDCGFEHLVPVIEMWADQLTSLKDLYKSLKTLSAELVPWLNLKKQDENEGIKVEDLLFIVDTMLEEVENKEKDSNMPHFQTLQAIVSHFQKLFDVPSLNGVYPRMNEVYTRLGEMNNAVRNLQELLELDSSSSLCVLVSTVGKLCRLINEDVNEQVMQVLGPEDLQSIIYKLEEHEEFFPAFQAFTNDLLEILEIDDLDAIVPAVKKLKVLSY

Row | Variant | effect of a mutation on the interaction
1 | E486Q | with no effect

Variants of: B2
Conditions: with cep57_human CEP57, Q86XR8

Row | Variant | effect of a mutation on the interaction
2 | R8Q | with no effect
3 | S688L | with no effect

Variants of: B3
Conditions: with banp_human BANP

Row | Variant | effect of a mutation on the interaction
4 | R177Q | with no effect

Variants of: B4
Conditions: with ldoc1_human LDOC1, O95751
ldoc1_human LDOC1, O95751, sequence (O95751 whole entry): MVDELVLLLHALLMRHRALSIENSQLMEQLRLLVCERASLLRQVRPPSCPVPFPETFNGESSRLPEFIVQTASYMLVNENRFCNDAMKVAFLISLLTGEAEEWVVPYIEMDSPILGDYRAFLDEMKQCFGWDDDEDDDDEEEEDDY

Row | Variant | effect of a mutation on the interaction
5 | R43G | with no effect

Variants of: B4
Conditions: with tri23_human TRIM23, P36406
tri23_human TRIM23, P36406, sequence (P36406 whole entry): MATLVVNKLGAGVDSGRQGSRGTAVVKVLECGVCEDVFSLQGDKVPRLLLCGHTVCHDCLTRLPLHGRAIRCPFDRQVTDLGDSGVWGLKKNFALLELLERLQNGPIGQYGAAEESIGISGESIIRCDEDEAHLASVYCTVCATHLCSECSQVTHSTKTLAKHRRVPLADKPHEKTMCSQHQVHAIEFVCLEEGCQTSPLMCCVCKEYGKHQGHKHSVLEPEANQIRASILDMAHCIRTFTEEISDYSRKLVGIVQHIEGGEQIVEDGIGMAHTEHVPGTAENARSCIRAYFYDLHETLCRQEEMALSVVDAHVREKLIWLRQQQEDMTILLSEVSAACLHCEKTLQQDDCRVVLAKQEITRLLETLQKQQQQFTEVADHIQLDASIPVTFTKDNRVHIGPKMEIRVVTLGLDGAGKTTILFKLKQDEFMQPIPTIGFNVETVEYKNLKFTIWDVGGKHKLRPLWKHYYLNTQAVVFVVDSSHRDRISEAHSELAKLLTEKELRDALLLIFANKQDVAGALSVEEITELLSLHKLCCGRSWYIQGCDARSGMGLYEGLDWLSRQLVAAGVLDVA

Row | Variant | effect of a mutation on the interaction
6 | R43G | with no effect

Variants of: B4
Conditions: with nemo_human IKBKG

Row | Variant | effect of a mutation on the interaction
7 | R43G | with no effect

Variants of: B4
Conditions: with mtus2_human MTUS2, Q5JR59
mtus2_human MTUS2, Q5JR59, sequence (Q5JR59 whole entry): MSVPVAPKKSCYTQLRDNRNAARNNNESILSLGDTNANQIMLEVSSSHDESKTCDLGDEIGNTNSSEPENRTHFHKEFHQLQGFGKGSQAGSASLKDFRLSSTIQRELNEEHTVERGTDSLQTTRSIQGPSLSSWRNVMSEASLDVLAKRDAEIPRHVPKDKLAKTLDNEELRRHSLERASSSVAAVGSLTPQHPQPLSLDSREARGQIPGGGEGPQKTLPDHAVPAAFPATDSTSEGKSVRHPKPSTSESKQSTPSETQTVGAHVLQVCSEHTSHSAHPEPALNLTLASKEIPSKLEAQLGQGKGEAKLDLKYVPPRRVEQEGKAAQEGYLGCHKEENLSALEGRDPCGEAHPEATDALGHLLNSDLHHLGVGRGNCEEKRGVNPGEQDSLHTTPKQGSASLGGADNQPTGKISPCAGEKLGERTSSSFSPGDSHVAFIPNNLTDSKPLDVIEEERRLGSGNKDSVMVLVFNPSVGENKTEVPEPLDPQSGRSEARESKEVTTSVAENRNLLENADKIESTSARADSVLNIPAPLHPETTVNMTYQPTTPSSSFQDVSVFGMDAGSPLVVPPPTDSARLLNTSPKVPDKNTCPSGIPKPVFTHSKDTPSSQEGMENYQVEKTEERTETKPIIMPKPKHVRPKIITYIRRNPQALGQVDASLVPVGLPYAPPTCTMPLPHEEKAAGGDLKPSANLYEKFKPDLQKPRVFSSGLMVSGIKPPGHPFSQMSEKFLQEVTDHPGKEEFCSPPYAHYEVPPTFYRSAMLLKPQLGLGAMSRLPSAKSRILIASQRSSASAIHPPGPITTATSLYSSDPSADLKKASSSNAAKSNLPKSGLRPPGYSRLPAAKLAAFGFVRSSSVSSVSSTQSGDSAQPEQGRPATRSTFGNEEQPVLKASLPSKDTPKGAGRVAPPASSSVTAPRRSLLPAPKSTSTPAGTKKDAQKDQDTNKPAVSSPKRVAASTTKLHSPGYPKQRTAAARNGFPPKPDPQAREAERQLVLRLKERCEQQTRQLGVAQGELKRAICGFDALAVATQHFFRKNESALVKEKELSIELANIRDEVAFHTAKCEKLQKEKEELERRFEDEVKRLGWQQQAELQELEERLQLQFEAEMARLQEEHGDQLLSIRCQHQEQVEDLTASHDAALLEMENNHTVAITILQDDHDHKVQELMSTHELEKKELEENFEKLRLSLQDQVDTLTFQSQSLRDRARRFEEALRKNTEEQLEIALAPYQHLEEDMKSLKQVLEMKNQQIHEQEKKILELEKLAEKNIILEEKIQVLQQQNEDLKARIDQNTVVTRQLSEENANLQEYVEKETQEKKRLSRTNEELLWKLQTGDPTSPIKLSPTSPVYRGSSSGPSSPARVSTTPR

Row | Variant | effect of a mutation on the interaction
8 | R43G | with no effect

Variants of: B4
Conditions: with pdli7_human PDLIM7, Q9NR12
pdli7_human PDLIM7, Q9NR12, sequence (Q9NR12 whole entry): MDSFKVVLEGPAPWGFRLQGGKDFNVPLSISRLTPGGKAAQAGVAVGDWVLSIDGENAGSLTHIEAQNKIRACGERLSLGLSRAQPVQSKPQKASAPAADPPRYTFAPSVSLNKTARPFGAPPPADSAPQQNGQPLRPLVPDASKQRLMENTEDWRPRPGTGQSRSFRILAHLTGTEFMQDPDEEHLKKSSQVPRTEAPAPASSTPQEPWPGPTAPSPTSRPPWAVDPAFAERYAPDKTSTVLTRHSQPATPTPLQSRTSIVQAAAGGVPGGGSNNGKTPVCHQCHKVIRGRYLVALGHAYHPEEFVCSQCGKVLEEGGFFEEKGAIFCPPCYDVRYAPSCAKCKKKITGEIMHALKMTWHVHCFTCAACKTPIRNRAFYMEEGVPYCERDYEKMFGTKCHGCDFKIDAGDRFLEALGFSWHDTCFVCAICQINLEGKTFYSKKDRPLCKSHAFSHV

Row | Variant | effect of a mutation on the interaction
9 | R43G | with no effect

Variants of: B5
Conditions: with cr3l1_human CREB3L1, Q96BA8

Row | Variant | effect of a mutation on the interaction
10 | A119V | disrupting interaction strength

Variants of: B6
Conditions: with dnal4_human DNAL4, O96015

Row | Variant | effect of a mutation on the interaction
11 | N33S | with no effect

Variants of: B7
Conditions: with dic_human SLC25A10, Q9UBX3

Row | Variant | effect of a mutation on the interaction
12 | R74Q | with no effect
